One block for each binder: values may come before it. Where no end group is shown, it is not given here.
B2: rhodamine-labeled 22-residue carboxy-terminal NPT2A peptide (peptide)
peptide: {5(6)‑carboxytetramethylrhodamine}-ELPPATPSPRLALPAHHNATRL
notes: type II sodium-dependent phosphate co-transporter (NPT2A, SLC34A1), 22-residue carboxy-terminal fragment; also called labeled NPT2A peptide; source: synthetic peptide (solid phase, Fmoc; HPLC purified)

Legend:
Conditions in all cases: both partners purified
[1] = molecular target: T1, NHERF1 PDZ1 H27N/E43D (1–120) (human, UniProt O14745 1-120, H27N | E43D); test: ITC; 25°C; 10 mM Hepes (pH 7.5), 10 mM NaCl, 0.5 mM EDTA, 0.5 mM beta-mercaptoethanol; 25 uM PDZ protein in the cell, NPT2A (200–250 uM) titrated in 19 injections of 2 ul
T1 construct: The double mutant's plasmid is not described in the methods; also called His27Asn/Glu43Asp PDZ1; source: E. coli BL21 (DE3), purified (Ni-NTA-agarose)
T1 sequence (looked up): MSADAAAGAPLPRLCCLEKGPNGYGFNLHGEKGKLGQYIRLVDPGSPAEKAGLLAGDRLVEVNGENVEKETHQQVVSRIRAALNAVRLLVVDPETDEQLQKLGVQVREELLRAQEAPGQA

NHERF1 PDZ1 (1–120) = molecular target: T2, NHERF1 PDZ1 (1–120) (human, UniProt O14745 1-120); test: as above
T2 construct: the methods describe PDZ1 (11-120) and PDZ1 (1-140) but no 1-120 construct, so 1-120 may be a misprint of 11-120; Host and purification are the general statement of the methods; also called WT PDZ1; source: E. coli BL21 (DE3), purified (Ni-NTA-agarose)
T2 sequence (looked up): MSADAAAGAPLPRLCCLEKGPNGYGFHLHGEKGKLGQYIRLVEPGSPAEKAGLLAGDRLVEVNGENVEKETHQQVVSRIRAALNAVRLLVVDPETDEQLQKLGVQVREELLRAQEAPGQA

NHERF1 PDZ1 H27N (1–120) = molecular target: T3, NHERF1 PDZ1 H27N (1–120) (human, UniProt O14745 1-120, H27N); test: as above
T3 construct: the methods describe the mutants in PDZ1 (11-120), so 1-120 may be a misprint of 11-120; also called His27Asn; source: E. coli BL21 (DE3), purified (Ni-NTA-agarose)
T3 sequence (looked up): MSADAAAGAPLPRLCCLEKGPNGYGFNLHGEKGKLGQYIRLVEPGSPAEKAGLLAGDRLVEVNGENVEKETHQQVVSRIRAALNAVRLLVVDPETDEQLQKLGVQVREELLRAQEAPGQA

NHERF1 PDZ1 E43D (1–120) = molecular target: T4, NHERF1 PDZ1 E43D (1–120) (human, UniProt O14745 1-120, E43D); test: as above
T4 construct: the methods describe the mutants in PDZ1 (11-120), so 1-120 may be a misprint of 11-120; also called Glu43Asp; source: E. coli BL21 (DE3), purified (Ni-NTA-agarose)
T4 sequence (looked up): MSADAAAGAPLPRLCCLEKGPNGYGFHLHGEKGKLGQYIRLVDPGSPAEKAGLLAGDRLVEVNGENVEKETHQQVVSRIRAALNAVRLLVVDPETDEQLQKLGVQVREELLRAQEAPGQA

NHERF1 PDZ1 (1–140) [2] = molecular target: T5, NHERF1 PDZ1 (1–140) (human, UniProt O14745 1-140); test: fluorescence polarisation; as a1 but at pH 5.5; 0.5 uM labeled NPT2A peptide, WT PDZ1 (1–140)
T5 construct: Na+/H+ Exchanger Regulatory Factor-1 (NHERF1, EBP50), human, PDZ1 construct, residues 1-140; Plasmid pET16-N1P1 provided by D. F. Mierke; also called WT PDZ1 (1–140); pET16-N1P1; source: E. coli BL21 (DE3), purified (Ni-NTA-agarose)
T5 sequence (looked up): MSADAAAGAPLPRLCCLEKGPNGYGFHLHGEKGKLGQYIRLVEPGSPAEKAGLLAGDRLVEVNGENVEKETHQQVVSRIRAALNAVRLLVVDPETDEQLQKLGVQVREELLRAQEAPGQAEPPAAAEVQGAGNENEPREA

NHERF1 PDZ1 (1–140) [3] = molecular target: T5, NHERF1 PDZ1 (1–140); test: fluorescence polarisation; as a1 but at pH 6.0; 0.5 uM labeled NPT2A peptide, WT PDZ1 (1–140)
NHERF1 PDZ1 (1–140) [4] = molecular target: T5, NHERF1 PDZ1 (1–140); test: fluorescence polarisation; solution phase direct binding, PDZ construct varied against 0.5 uM or 1 uM rhodamine-labeled NPT2A peptide; FP buffer (25 mM NaH2PO4, 10 mM NaCl, pH 7.4, 1 mM DTT, 0.1 mg/ml bovine IgG, 0.5 mM Thesit); 25°C; anisotropy fitted to a 1:1 complex
NHERF1 PDZ1 (11–120) = molecular target: T6, NHERF1 PDZ1 (11–120) (human, UniProt O14745 11-120); test: as above
T6 construct: Na+/H+ Exchanger Regulatory Factor-1 (NHERF1, EBP50), human, PDZ1 construct, residues 11-120; also called WT PDZ1 (11–120); source: E. coli BL21 (DE3), purified (Ni-NTA-agarose)
T6 sequence (looked up): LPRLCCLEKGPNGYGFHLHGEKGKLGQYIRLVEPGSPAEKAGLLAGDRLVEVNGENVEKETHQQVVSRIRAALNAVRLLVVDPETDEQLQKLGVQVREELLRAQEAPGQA

[5] = molecular target: B2; test: as above

Kd [1]: 17.9 ± 0.9 µM
dH [1]: -5.8 ± 0.6 kcal/mol
stoichiometry N [1]: 0.6
Kd (NHERF1 PDZ1 (1–120)): 3.1 ± 0.3 µM
dH (NHERF1 PDZ1 (1–120)): -8.2 ± 0.8 kcal/mol
stoichiometry N (NHERF1 PDZ1 (1–120)): 0.92
Kd (NHERF1 PDZ1 H27N (1–120)): 5.3 ± 0.5 µM
dH (NHERF1 PDZ1 H27N (1–120)): -7.5 ± 0.7 kcal/mol
stoichiometry N (NHERF1 PDZ1 H27N (1–120)): 0.61
Kd (NHERF1 PDZ1 E43D (1–120)): 10.4 ± 0.8 µM
dH (NHERF1 PDZ1 E43D (1–120)): -3 ± 0.3 kcal/mol
stoichiometry N (NHERF1 PDZ1 E43D (1–120)): 0.6
B1: NPT2A peptide (ligand titrated in ITC) (peptide)
peptide: ELPPATPSPRLALPAHHNATRL
notes: type II sodium-dependent phosphate co-transporter (NPT2A, SLC34A1), 22-residue carboxy-terminal fragment; Kept apart from m1 for that reason; also called ligand NPT2A; source: synthetic peptide

Binder: B2
Kd (NHERF1 PDZ1 (1–140) [2]): 16.1 ± 3.3 µM
Kd (NHERF1 PDZ1 (1–140) [3]): 8 ± 1.8 µM
Kd (NHERF1 PDZ1 (1–140) [4]): 1.7 ± 0.2 µM
Kd (NHERF1 PDZ1 (11–120)): 5.5 ± 0.6 µM

EC50 [5]: 20 ± 10 µM
B3: NHERF1 PDZ2 D183E (domain or fragment, human, UniProt O14745 133-300, looked up)
chain: NENEPREADKSHPEQRELRPRLCTMKKGPSGYGFNLHSDKSKPGQFIRSVEPDSPAEASGLRAQDRIVEVNGVCMEGKQHGDVVSAIRAGGDETKLLVVDRETDEFFKKCRVIPSQEHLNGPLPVPFTNGEIQKENSREALAEAALESPRPALVRSASSDTSEELNSQ
notes: Na+/H+ Exchanger Regulatory Factor-1 (NHERF1, EBP50), human, PDZ2 construct, residues 133-300 (mutation introduced into pET16-N1P2), Asp183Glu; also called Asp183Glu PDZ2; single PDZ2 mutant; source: E. coli BL21 (DE3), purified (Ni-NTA-agarose)

EC50 [5]: 11.7 ± 2 µM
B4: NHERF1 PDZ2 N167H/D183E (domain or fragment, human, UniProt O14745 133-300, looked up)
chain: NENEPREADKSHPEQRELRPRLCTMKKGPSGYGFHLHSDKSKPGQFIRSVEPDSPAEASGLRAQDRIVEVNGVCMEGKQHGDVVSAIRAGGDETKLLVVDRETDEFFKKCRVIPSQEHLNGPLPVPFTNGEIQKENSREALAEAALESPRPALVRSASSDTSEELNSQ
notes: Na+/H+ Exchanger Regulatory Factor-1 (NHERF1, EBP50), human, PDZ2 construct, residues 133-300 (mutations introduced into pET16-N1P2), Asn167His and Asp183Glu; also called Asn167His/Asp183Glu PDZ2; double PDZ2 mutant; source: E. coli BL21 (DE3), purified (Ni-NTA-agarose)

From paper PMC4466390, “Canonical and Noncanonical Sites Determine NPT2A Binding Selectivity to NHERF1 PDZ1” (PLoS ONE, 2015)
